# Test results taken from patent US20260242478A1 (published 2026).
# Where no end group is shown, it is not given here.
# B1: Phage-26 (peptide, not shown: large carriers)
# peptide: MDWCPRDLWHECFA
# modifications: cysteine pairing not given here; also: phage-displayed pIII fusion, pIII and linker not given here
# notes: Clonal phage supernatant
# B2: Phage-487 (peptide, not shown: large carriers)
# peptide: YCEGHLPEYREKCL
# notes: Clonal phage of the Peptide-87 optimisation library, tested as crude supernatant
# B3: Phage-493 (peptide, not shown: large carriers)
# peptide: YCEGHLPEYRNKCL
# notes: as for B2
# B4: Phage-492 (peptide, not shown: large carriers)
# peptide: YCWSHSPPFIKKCY
# notes: as for B2
# B5: Phage-489 (peptide, not shown: large carriers)
# peptide: YCEGHSQEYLWKCL
# notes: as for B2
# B6: Phage-9 (peptide, not shown: large carriers)
# peptide: MDWCPRERWVDCFF
# modifications: cysteine pairing not given here; also: displayed on phage as fusion to pIII, linker not given here
# notes: Clonal phage supernatant
# B7: Phage-498 (peptide, not shown: large carriers)
# peptide: YCDGHSPIYMWKCL
# notes: as for B2
# B8: Phage-494 (peptide, not shown: large carriers)
# peptide: YCEGHLPEYLEKCV
# notes: as for B2
# B9: Phage-34 (peptide, not shown: large carriers)
# peptide: MDWCPRHMWNYCFA
# modifications: cysteine pairing not given here; also: displayed on phage as fusion to pIII, linker and pIII sequence not given here
# notes: Clonal phage supernatant
# B10: Phage-495 (peptide, not shown: large carriers)
# peptide: YCEGHLPEYIQKCL
# notes: as for B2
# B11: Phage-496 (peptide, not shown: large carriers)
# peptide: YCEGHLPEYIWKCL
# notes: as for B2
# B12: Phage-491 (peptide, not shown: large carriers)
# peptide: HCSGHHWLQVWKCF
# notes: as for B2
# B13: Phage-490 (peptide, not shown: large carriers)
# peptide: YCEGHSSEYIQKCL
# notes: as for B2
# B14: Phage-497 (peptide, not shown: large carriers)
# peptide: YCEGHAPEYIGKCL
# notes: as for B2
# B15: Phage-19 (peptide, not shown: large carriers)
# peptide: MDWCPIDLWNECFF
# modifications: cysteine pairing not given here; also: phage-displayed pIII fusion, pIII and linker not given here
# notes: Clonal phage supernatant
# B16: Phage-486 (peptide, not shown: large carriers)
# peptide: YCEGHLPEYLGKCL
# notes: as for B2
# B17: Phage-488 (peptide, not shown: large carriers)
# peptide: YCEGHLPEYLAKCL
# notes: as for B2
# B18: Phage-499 (peptide, not shown: large carriers)
# peptide: YCEGHAPEYMAKCL
# notes: as for B2
# Key:
# [1] = target: T1, anti-CD28 scFv (VH - linker 1 - VL) (biotinylated (site not stated)); assay: phage ELISA; biotinylated anti-CD28 scFv on neutravidin plate, clonal phage supernatant, anti-M13-HRP detection;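 note: before phage addition, wells were pretreated with soluble CD28 protein in blocking buffer, or with blocking buffer only as the comparison, then phage were added without washing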
# T1 sequence (scFv, as listed by the source): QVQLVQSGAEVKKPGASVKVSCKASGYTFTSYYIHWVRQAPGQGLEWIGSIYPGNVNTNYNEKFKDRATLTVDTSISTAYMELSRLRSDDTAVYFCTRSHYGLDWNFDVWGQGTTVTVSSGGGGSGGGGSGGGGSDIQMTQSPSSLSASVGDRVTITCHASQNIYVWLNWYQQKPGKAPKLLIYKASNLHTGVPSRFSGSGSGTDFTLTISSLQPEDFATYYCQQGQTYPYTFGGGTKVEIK
# [2] = target: T1, anti-CD28 scFv (VH - linker 1 - VL); assay: same phage ELISA, wells pre-incubated with soluble CD28 (competitor)
# Procedure: Clonal phage were harvested as crude supernatants and screened via standard enzyme linked immunosorbent assays (ELISAs). […] Prior to the addition of clonal phage, wells were incubated with blocking buffer and CD28 soluble protein or blocking buffer alone. Without washing or aspirating, clonal phage supernatants were then added to the wells and incubated for a short time. Wells were then washed followed by detection of bound phage using a horse radish peroxidase conjugated anti-M13 antibody.
# [3] = target: T2, Anti-CD28 Fab (SEQ ID NOs: 696, 697); assay: phage binding ELISA; biotinylated anti-CD28 Fab on neutravidin plate, clonal phage supernatant, anti-M13 HRP detection
# T2 construct: Biotinylated and captured on neutravidin coated plates in the phage ELISA
# T2 sequence (VH, as listed by the source, chain 1 of 2): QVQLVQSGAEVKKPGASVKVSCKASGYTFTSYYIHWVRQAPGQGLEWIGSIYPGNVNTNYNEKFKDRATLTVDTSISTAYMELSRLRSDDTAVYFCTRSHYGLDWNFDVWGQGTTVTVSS
# T2 sequence (VL, as listed by the source, chain 2 of 2): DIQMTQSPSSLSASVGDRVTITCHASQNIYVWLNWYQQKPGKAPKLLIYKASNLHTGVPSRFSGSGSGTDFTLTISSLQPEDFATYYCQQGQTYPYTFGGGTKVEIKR
# [4] = target: T2, Anti-CD28 Fab (SEQ ID NOs: 696, 697); assay: phage binding ELISA; Fab-coated wells pre-incubated with CD28 antigen as competitor, anti-M13 HRP detection;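 note: crude clonal phage supernatants from panned colonies added to wells after blocking buffer plus CD28 treatment, bound phage measured after a brief incubation and washing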
# Procedure: After panning, phage infected bacteria were plated out and colonies picked into 96 well blocks. Clonal phage was then amplified and separated from bacterial cells via centrifugation.
# Clonal phage were harvested as crude supematants and screened via standard ELISAs. […] Prior to the addition of clonal phage, wells were incubated with blocking buffer and CD28 antigen or blocking buffer alone. Without washing or aspirating, clonal phage supematants were then added to the wells and incubated for a short time. Wells were then washed followed by detection of bound phage using a horse radish conjugated anti-M13 antibody. Clonal phage of interest were then sent for sequence analysis.
# [5] = target: T3, PSMA Fab (SEQ ID NOs: 19, 20); assay: competition ELISA, peptide titrated against 0.3 nM PSMA Fab on captured biotinylated PSMA
# T3 construct: also called 006 PSMA Fab; anti-PSMA Fab
# Procedure: The concentration of peptide required to reduce the maximum signal by 50% (IC₅₀) was calculated in Graphpad Prism software.
binder,measurement,setting,value
B1,CD28 scFv signal,[1],2.71
same,CD28 scFv signal in presence of CD28,[2],0.277
"MDWCPIYLWSECFN (peptide, not shown: large carriers, Clonal phage supernatant) [Phage-21]",CD28 scFv signal,[1],2.63
same,CD28 scFv signal in presence of CD28,[2],0.513
B2,Anti-CD28 Fab signal (phage binding ELISA),[3],1.96
same,Anti-CD28 Fab signal in the presence of CD28 (phage binding ELISA),[4],0.07
B3,Anti-CD28 Fab signal (phage binding ELISA),[3],2.38
same,Anti-CD28 Fab signal in the presence of CD28 (phage binding ELISA),[4],0.17
B4,Anti-CD28 Fab signal (phage binding ELISA),[3],2.06
same,Anti-CD28 Fab signal in the presence of CD28 (phage binding ELISA),[4],0.06
"MDWCPIHLWHVCFN (peptide, not shown: large carriers, cysteine pairing not given here; also: displayed as fusion to phage pIII, Clonal phage supernatant) [Phage-20]",CD28 scFv signal,[1],2.53
same,CD28 scFv signal in presence of CD28,[2],0.167
B5,Anti-CD28 Fab signal (phage binding ELISA),[3],2.36
same,Anti-CD28 Fab signal in the presence of CD28 (phage binding ELISA),[4],0.07
B6,CD28 scFv signal,[1],2.04
same,CD28 scFv signal in presence of CD28,[2],0.489
B7,Anti-CD28 Fab signal (phage binding ELISA),[3],2.47
same,Anti-CD28 Fab signal in the presence of CD28 (phage binding ELISA),[4],0.09
"MDWCPLYLWNECFN (peptide, not shown: large carriers, Clonal phage supernatant) [Phage-24]",CD28 scFv signal,[1],2.61
same,CD28 scFv signal in presence of CD28,[2],0.247
B8,Anti-CD28 Fab signal (phage binding ELISA),[3],2.11
same,Anti-CD28 Fab signal in the presence of CD28 (phage binding ELISA),[4],0.06
"MCQWDKINYWMDCD (cysteine pairing not given here; also: biotinylated (site not given here), PSMA peptide mask (P2)) [Peptide-205]",IC50,[5],5.52 µM
B9,CD28 scFv signal,[1],2.71
same,CD28 scFv signal in presence of CD28,[2],0.242
"QCVWDLTNYWMNCD (cysteine pairing not given here; also: biotinylated (site not given here), PSMA peptide mask (P2)) [Peptide-206]",IC50,[5],28.7 µM
B10,Anti-CD28 Fab signal (phage binding ELISA),[3],1.9
same,Anti-CD28 Fab signal in the presence of CD28 (phage binding ELISA),[4],0.08
B11,Anti-CD28 Fab signal (phage binding ELISA),[3],2.32
same,Anti-CD28 Fab signal in the presence of CD28 (phage binding ELISA),[4],0.09
"QCTWNEKTWWMECE (cysteine pairing not given here; also: biotinylated (site not given here), PSMA peptide mask (P2)) [Peptide-204]",IC50,[5],9.07 µM
B12,Anti-CD28 Fab signal (phage binding ELISA),[3],2.31
same,Anti-CD28 Fab signal in the presence of CD28 (phage binding ELISA),[4],0.07
"MDWCPRFMWDECFN (peptide, not shown: large carriers, Clonal phage supernatant) [Phage-33]",CD28 scFv signal,[1],2.68
same,CD28 scFv signal in presence of CD28,[2],0.256
"QCVWDRGTWWMACD (cysteine pairing not given here; also: biotinylated, site not given here, PSMA peptide mask (P2)) [Peptide-209]",IC50,[5],10.2 µM
"MCQWDELNYWMDCD (cysteine pairing not given here; also: biotinylated (site not given here), PSMA peptide mask (P2)) [Peptide-202]",IC50,[5],11 µM
B13,Anti-CD28 Fab signal (phage binding ELISA),[3],2.25
same,Anti-CD28 Fab signal in the presence of CD28 (phage binding ELISA),[4],0.1
B14,Anti-CD28 Fab signal (phage binding ELISA),[3],2.1
same,Anti-CD28 Fab signal in the presence of CD28 (phage binding ELISA),[4],0.07
"DCHWNKATWWMDCE (cysteine pairing not given here; also: biotinylated, site not given here, PSMA peptide mask (P2)) [Peptide-207]",IC50,[5],9.86 µM
"ILPCHWYTSDCPQH (cysteine pairing not given here; also: biotinylated (site not given here), PSMA peptide mask (P2)) [Peptide-200]",IC50,[5],12.2 µM
"MDWCPMHLWHQCFN (peptide, not shown: large carriers, Clonal phage supernatant) [Phage-39]",CD28 scFv signal,[1],2.56
same,CD28 scFv signal in presence of CD28,[2],0.299
B15,CD28 scFv signal,[1],2.52
same,CD28 scFv signal in presence of CD28,[2],0.187
"QCVWDNFNYWMDCD (cysteine pairing not given here; also: biotinylated (site not given here), PSMA peptide mask (P2)) [Peptide-203]",IC50,[5],36.1 µM
B16,Anti-CD28 Fab signal (phage binding ELISA),[3],1.23
same,Anti-CD28 Fab signal in the presence of CD28 (phage binding ELISA),[4],0.08
B17,Anti-CD28 Fab signal (phage binding ELISA),[3],2.34
same,Anti-CD28 Fab signal in the presence of CD28 (phage binding ELISA),[4],0.1
B18,Anti-CD28 Fab signal (phage binding ELISA),[3],2.47
same,Anti-CD28 Fab signal in the presence of CD28 (phage binding ELISA),[4],0.08
